From EP4663661A1 (Hainan Simcere Zaiming Pharmaceutical Co., Ltd., dated 2025) come the findings set out here.

The target of test [1] is human CDH6 protein, full length, on cells (OVCAR3, PA-1) (human) (UniProt P55285). Description: FACS, PA-1 cells. In general terms: In flow cytometry, cells or beads pass a laser one at a time.
Test [2] concerns the target monkey CDH6 protein (cynoCDH6 ECD-his) (monkey (cyno)). The experiment in a line: ELISA, antigen coated.
For test [3], the target named is murine CDH6 protein (mCDH6 ECD-his) (mouse) (UniProt P97326). The experiment in a line: ELISA, antigen coated.
In test [4] the target is his-tagged human CDH6 extracellular region protein (hCDH6 ECD-his) (human) (UniProt P55285). The experiment in a line: ELISA, antigen coated.
In test [5] the target is human CDH6 protein, full length, on cells (OVCAR3, PA-1) (human) (UniProt P55285). The experiment in a line: FACS, OVCAR3 cells.
The target in test [6] is human CDH6 with EC1 removed, on HEK293T cells (HEK293T-hCDH6-EC1 deletion) (human) (UniProt P55285). The experiment in a line: FACS, HEK293T-hCDH6-EC1 deletion cells.
Test [7] concerns the target human CDH6 with EC4 removed, on HEK293T cells (HEK293T-hCDH6-EC4 deletion) (human) (UniProt P55285). Description: FACS, HEK293T-hCDH6-EC4 deletion cells.
Test [8] deals with human CDH6 with EC3 removed, on HEK293T cells (HEK293T-hCDH6-EC3 deletion) (human) (UniProt P55285). Description: FACS, HEK293T-hCDH6-EC3 deletion cells.
Test [9] addresses human CDH6 with EC5 removed, on HEK293T cells (HEK293T-hCDH6-EC5 deletion) (human) (UniProt P55285). The experiment in a line: FACS, HEK293T-hCDH6-EC5 deletion cells.
The target in test [10] is human CDH6 with EC2 removed, on HEK293T cells (HEK293T-hCDH6-EC2 deletion) (human) (UniProt P55285). The experiment in a line: FACS, HEK293T-hCDH6-EC2 deletion cells.
Test [11] deals with T1, his-tagged human CDH6 extracellular region protein (hCDH6 ECD-his) (human, UniProt P55285 54-615).
T1 construct: also called hCDH6-his; Human CDH6-his; not shown: his tag
T1 sequence: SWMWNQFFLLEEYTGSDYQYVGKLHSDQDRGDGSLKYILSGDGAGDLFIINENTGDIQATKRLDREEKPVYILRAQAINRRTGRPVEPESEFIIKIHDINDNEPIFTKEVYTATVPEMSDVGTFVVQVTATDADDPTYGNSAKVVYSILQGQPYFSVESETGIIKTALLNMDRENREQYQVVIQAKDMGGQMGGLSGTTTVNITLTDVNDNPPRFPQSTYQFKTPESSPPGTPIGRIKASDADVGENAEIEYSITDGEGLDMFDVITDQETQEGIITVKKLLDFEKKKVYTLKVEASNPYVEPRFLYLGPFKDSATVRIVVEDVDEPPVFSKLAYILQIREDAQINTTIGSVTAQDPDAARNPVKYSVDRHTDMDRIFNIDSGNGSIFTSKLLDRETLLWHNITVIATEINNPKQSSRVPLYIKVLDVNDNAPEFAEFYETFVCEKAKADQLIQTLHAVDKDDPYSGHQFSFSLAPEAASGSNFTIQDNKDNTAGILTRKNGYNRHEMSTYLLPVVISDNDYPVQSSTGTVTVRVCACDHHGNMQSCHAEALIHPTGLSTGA
The experiment in a line: SPR Biacore, antibody captured on Protein A chip. A general note: Surface plasmon resonance follows binding to a sensor surface in real time, without labels.

Substitutions are numbered along the chain they refer to.

Regarding hIgG1 (antibody), the results for the Max MFI in [1] and in test [5] were 64 MFI and 63 MFI, respectively. Moreover, the Max OD450 in [2] turned out to be 0.06 OD450; in test [3], 0.1 OD450; in test [4] it was 0.07 OD450.

B1: CHI-CDH6-5 (antibody, human IgG1, kappa, V domains shown)
VH: QVQLQQSGAELVRPGTSVKMSCKAAEYTFTNYWIGWVKQRPGHGLEWIGDLYPGGDHANYNEKFEGKATLTADTSSSTAYMQLSSLTSEDSAIYYCARGMLTTGFDSWGQGTTLTVSS
VL: DIVMSQSPSSLAVSAGEKVTMSCKSSQSLFNSRTRKNYLAWYQQKPGQSPKLLIYWASTRESGVPDRFTGSGSGTDFTLTISSVQAEDLAVYYCKQSYYLRTFGGGTKLEIKR
For B1, the Max MFI in test [6] was found to be 112 MFI; in [7] it was 18700 MFI; in [8] it was 12200 MFI; in [9], 4240 MFI; in test [10], 343 MFI. Also, the EC50 (usually the concentration needed to bring the measured effect to its halfway point) in [3] was 0.046 nM. The same molecule showed a Max OD450 in test [3] of 1.92 OD450.

B2: CHI-CDH6-4 (antibody, human IgG1, kappa, V domains shown)
VH: QVQLQQSGPELVKPGASVKISCKASGYAFSNFWMNWVKQRPGKGLEWIGWIYPGDGDTNYNGKFKDKATLTADKSSSTAYIQLSSLTSEDSAVYFCARLYDAWGFFDYWGQGTTLTVSS
VL: QIVLTQSPAIMSASPGQKVTITCSASSSVNYMHWYQQKLGSSPKLWIYDKSKLAPGVPARFSGSGSGTSYSLTISSMEAEDAASYFCHQWSSYPPMTFGGGTKLEIKR
For the molecule B2, the Max MFI in [6] amounted to 10200 MFI; in test [7] it was 22200 MFI; in test [8] it was 15100 MFI; in test [9] it was 6540 MFI; in test [10], 75 MFI. This molecule displayed an EC50 in [3] of 0.035 nM. The same molecule had a Max OD450 in test [3] of 2.32 OD450.

B3: CHI-CDH6-11 (antibody, human IgG1, kappa, V domains shown)
VH: QIQLQQSGPELVKPGASVRISCKASGYTFTDYYITWVKLRPGQGLEWIGWIYPGSVNIKYNEKFKGKATLTVDTSSSTAYMQLNSLTSEDSAVYFCARGGYSWFPYWGQGTLVTVSA
VL: NIVMTQSPKSMSMSVGERVTLSCKASENVHTYVSWYQQKPEQSPKLLFYGASTRNTGVPDRFTGSGSATDFTLTISSVQAEDLADYYCGQSYSYPYTFGSGTKLEIKR
On to B3, for which, in test [3], the EC50 was 0.04 nM and the Max OD450 worked out at 1.77 OD450.

B4: CHI-CDH6-3 (antibody, human IgG1, kappa, V domains shown)
VH: QVQLQQPGAELVKPGASVKLSCKASGYTFTSYWIHWVKQRPGQGLEWIGEINPSNGVTNCNENFKSKATLTVDKSSSTAYMQLSSLTSEDSAVYYCTIPNLLWWYFDVWGAGTTVTVSS
VL: DIQMTQSPASLSVSVGETVTITCRASENIYSNLAWYQQKQGKSPQLLVYEATNLADGVPSRFSGSGSGTQYSLKINSLQSEDFGSYYCQHFWGTLWTFGGGTKLEIKR
B4: the Max MFI in test [6] is 11100 MFI; in [7], 16800 MFI; in [8] it was 689 MFI; in test [9], 5610 MFI; in [10], 7550 MFI. In test [3], this molecule showed an EC50 of 0.051 nM. The same molecule showed a Max OD450 in [3] of 2.38 OD450.

B5: CHI-CDH6-9 (antibody, human IgG1, kappa, V domains shown)
VH: QVQLQQPGAELVKPGASVKLSCKASGYTFTGYWMHWVRQRPGQGLEWIGEINPNNGGTNCNEQFKNKATLTVDKSSSTAYMQLSSLTSEDSAVFYCTISFGNYLFFDVWGAGTTVTVSS
VL: DIQMTQSPASLAASVGETITITCQASENIYFSLAWYQQKQGKSPQLLIYNANTLEDGVPSRFVGSGSGTQYSMKINSIQPEDTATYFCDQTYDFPWTFGGGTKLEIKR
Take B5: in test [3], the EC50 is 0.022 nM and the Max OD450 was found to be 2.77 OD450.

B6: NOV0712 (antibody, human IgG1, kappa, V domains shown)
VH: QVQLLESGGGLVQPGGSLRLSCAASGFTFSSHGMHWVRQAPGKGLEWVSVISGSGSNTGYADSVKGRFTISRDNSKNTLYLQMNSLRAEDTAVYYCARQWGSYAFDSWGQGTLVTVSS
VL: DIQMTQSPSSLSASVGDRVTITCRASQSISSYLNWYQQKPGKAPKLLIYAVSTLQSGVPSRFSGSGSGTDFTLTISSLQPEDFATYYCQQSGTFPPTTFGQGTKVEIKR
For the molecule B6, the Max MFI in [6] is 23600 MFI; in test [7], 20600 MFI; in test [8] it was 16300 MFI; in [10] it was 39100 MFI. In addition, the EC50 in test [3] was determined as 0.039 nM. Also, the Max OD450 in test [3] turned out to be 2.42 OD450.

B7: DS-H01L02 (antibody, human IgG1, kappa, V domains shown)
VH: EVQLVQSGAEVKKPGASVKVSCKASGYTFTRNFMHWVRQAPGQGLEWMGWIYPGDGETEYAQKFQGRVTITADTSTSTAYMELSSLRSEDTAVYYCARGVYGGFAGGYFDFWGQGTLVTVSS
VL: DIQMTQSPSSLSASVGDRVTITCKASQNIYKNLAWYQQKPGKAPKLLIYDANTLQTGVPSRFSGSGSGSDFTLTISSLQPEDFATYFCQQYYSGWAFGQGTKVEIKR
B7: the Max MFI was 5290 MFI in test [6], 11800 MFI in [7], 1530 MFI in [9] and 8390 MFI in test [10]. Moreover, the Max OD450 in [3] turned out to be 0.6 OD450.

B8: hCDH6-1-H1L1 (antibody, human IgG1, kappa, V domains shown)
VH: EVQLVQSGAEVKKPGSSVKVSCKASGYTFSNYWMHWVRQAPGQGLEWMGDIDPSHSETHYTQKFKDRVTITVDKSTSTAYMELSSLRSEDTAVYYCARGDLGRFDYWGQGTTVTVSS
VL: DIVMTQSPDSLAVSLGERATINCRASESVSIHGTHLMHWYQQKPGQPPKLLIYAASNLESGVPDRFSGSGSETDFTLTISSLQAEDVAVYYCQQSFEDPWTFGGGTKVEIKR
Turning to B8, in [11], the kon (in general, the second-order rate constant of association) worked out at 2100 M⁻¹ s⁻¹.

B9: CHI-CDH6-6 (antibody, human IgG1, kappa, V domains shown)
VH: EVQLQQSGPELVKPGDSVKMSCKASGYTFTDYYMAWVRQSHRKSLEWIGYIFPNSGGTDYSQKFKGKATLTVDKSSSTVYMELHSLTSEDSAVYYCARELGADYGDYYAMDHWGQGTSVSVSS
VL: DIQMTQSPASLSASVGETVTITCRASENIDSYLAWYQQKQGKSPQLLVYSATLLADGVPSRFSGSGSGTQYSLKINSLKSEDVARYYCQHYYRTPPTFGSGTKLEIKR
Regarding B9, in test [3], the EC50 is 0.025 nM and the Max OD450 is 1.6 OD450.

B10: CHI-CDH6-8 (antibody, human IgG1, kappa, V domains shown)
VH: EVQLQQSGPELVKPGDSVKMSCKASGYTFTDYYMAWIKQNHGKSLEWIGYIYPNNGGTDYNQKFRGKATLTVDKSSSAAYMELHSLTSEDSAVYYCAREIGTLYGDYYAMDYWGQGTSVTVSS
VL: B9 VL with S50T, K79Q, R93S
In test [3], B10 registered an EC50 of 0.028 nM and a Max OD450 of 1.82 OD450.

B11: CHI-CDH6-7 (antibody, human IgG1, kappa, V domains shown)
VH: EVKLVESGGGLVKPGGSLKVSCAASGFTFSDHGMAWVRQAPGKGPEWVAFISNLAYSIYYADTVTGRFTISRENAKNTLYLEMSSLRSEDTAMYYCARVYVKWYFDVWGAGTTVTVSS
VL: B9 VL with Y49F, S50A, K79Q, R93S, P96L, S100A, I106L
Regarding B11, the Max MFI in test [6] was found to be 88 MFI; in test [7], 17400 MFI; in test [8], 9060 MFI; in test [9] it was 1020 MFI; in test [10] it was 13000 MFI. In test [3], the EC50 came to 0.058 nM. Further, in [3], the Max OD450 stood at 2.12 OD450.

B12: CHI-CDH6-2 (antibody, human IgG1, kappa, V domains shown)
VH: EVQLQQSGPELVKPGASVRISCKASGYTFTDYYMNWVKQSHGKSLEWIGDIDPNNANTTYNQKFKGKATLTVDKSSSTAYMELRSLTSEDSAVYSCASFGYDVEWFGYWGQGTLVTVSA
VL: QIVLTQSPALMSASPGEKVTMTCSASSSVSYMYWYQQKPRSSPKPWIYLTSNLASGVPARFSGSGSGTSYSLTISSMEAEDAATYYCQQWSSNPFTFGSGTKLEIKR
As for B12, in test [3], the EC50 worked out at 0.023 nM and the Max OD450 stood at 1.62 OD450.

B13: CHI-CDH6-13 (antibody, human IgG1, kappa, V domains shown)
VH: DVQLQESGPGLVKPSQSLSLTCSVTGYSITKDSYWNWIRQFPGSKLEWMGFISYDGSRHYNPSLKNRISITRDTSKNQFFLQLNSVTTEDTATYYCARRDYADYWGQGTTLTVSS
VL: B12 VL with S14F, S26T, M32I, S75N, M77L, N93I, F95Y, S99G
Turning to B13, in test [3], the EC50 is 0.016 nM and the Max OD450 was 2.76 OD450.
